For 14 molecules, normalised SPOT signal, Boehringer light units (BLU); mean over the file's lines of this peptide results are on record in publication PMC314469, “Protein Interaction Networks by Proteome Peptide Scanning” (PLoS Biology, 2004).

T1: Boi1 SH3 (BOI1_YEAST), P38041
T1 chain: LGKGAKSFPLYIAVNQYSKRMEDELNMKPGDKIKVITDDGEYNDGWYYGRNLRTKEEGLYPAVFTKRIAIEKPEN

T2: Myo5 SH3 (MYO5_YEAST), Q04439
T2 chain: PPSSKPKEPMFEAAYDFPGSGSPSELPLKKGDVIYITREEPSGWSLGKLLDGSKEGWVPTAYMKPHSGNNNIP

T3: Yfr024 SH3 (LSB3_YEAST), P43603
T3 chain: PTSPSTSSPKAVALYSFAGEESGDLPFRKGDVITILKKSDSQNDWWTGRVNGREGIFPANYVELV

T4: Rvs167 SH3 (RV167_YEAST), P39743
T4 chain: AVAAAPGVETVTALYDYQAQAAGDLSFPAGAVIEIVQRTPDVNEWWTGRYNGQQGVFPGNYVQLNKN

T5: Yhr016c SH3 (YSC84_YEAST), P32793
T5 chain: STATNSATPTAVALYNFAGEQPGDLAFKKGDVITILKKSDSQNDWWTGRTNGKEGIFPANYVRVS

T6: Boi2 SH3 (BOI2_YEAST), P39969
T6 chain: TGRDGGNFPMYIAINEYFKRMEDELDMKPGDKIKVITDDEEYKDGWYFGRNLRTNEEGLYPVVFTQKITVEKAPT

B1: YDR335W 779-792 (peptide)
chain: LWRPRIVPILPYIT
B2: YKL214C 53-66 (peptide)
chain: LYREREEPPLPKRI
B3: YDR104C 798-811 (peptide)
chain: MKAYRANPPLPIDS
B4: YJR066W 21-34 (peptide)
chain: MDMDRNVPLAPNLN
B5: YGR221C 455-468 (peptide)
chain: LTSFKGRPKPPKTL
B6: YML058W 28-41 (peptide)
chain: MAEFRRVPLPPMAE
B7: YBL076C 285-298 (peptide)
chain: LVGLKYEPLFPYFA
B8: YAL054C 43-56 (peptide)
chain: LTSVKIVPQRPISD
B9: YDR017C 929-942 (peptide)
chain: MDKFRIPPKSPNIE
B10: YGL065C 457-470 (peptide)
chain: MAFIKILPNNPWPF
B11: YKL027W 383-396 (peptide)
chain: LTLTKWDPSKPISL
B12: YPL111W 171-184 (peptide)
chain: MGLNKDVPHSPESL
B13: YJL066C 98-111 (peptide)
chain: LVPSKAIPPLPQLD
B14: YMR266W 737-750 (peptide)
chain: MDGIKELPEFPIKK

One experiment has as its target T1, Boi1 SH3 (BOI1_YEAST), P38041. The experiment in a line: SPOT array.
B1 registered a normalised SPOT signal, Boehringer light units (BLU); mean over the file's lines of this peptide of 8230.
On the same count and under the same terms, the figure for B2 is 5980.
On the same count and under the same terms, the figure for B3 is 132; for B4 it is 41.3; for B5 it is 710.
Still for that read-out and setting: the same measure for B6: 59.6; for B7: 50.5; for B8: 100.
Take B9: the normalised SPOT signal, Boehringer light units (BLU); mean over the file's lines of this peptide was 3140.
On the same count and under the same terms, the figure for B10 is 44.1.
The same measure, in the same setting: the figure for B11 is 190; for B12 it is 146.
Consider B13, for which the normalised SPOT signal, Boehringer light units (BLU); mean over the file's lines of this peptide came out at 61.8.
Still for that read-out and setting: the figure for B14 is 25.9.

A further experiment concerns the target T2, Myo5 SH3 (MYO5_YEAST), Q04439. The experiment in a line: SPOT array.
The molecule B1 had a normalised SPOT signal, Boehringer light units (BLU); mean over the file's lines of this peptide of 1050.
Regarding B2, the normalised SPOT signal, Boehringer light units (BLU); mean over the file's lines of this peptide was found to be 112.
On the same count and under the same terms, the same measure for B3: 123.
The same measure, in the same setting: the figure for B4 is 91.4.
B5 registered a normalised SPOT signal, Boehringer light units (BLU); mean over the file's lines of this peptide of 328.
Same read-out and setting: the figure for B6 is 443; for B7 it is 125.
On the same count and under the same terms, the figure for B8 is 89; for B9 it is 222.
The molecule B10 registered a normalised SPOT signal, Boehringer light units (BLU); mean over the file's lines of this peptide of 59.9.
B11 returned a normalised SPOT signal, Boehringer light units (BLU); mean over the file's lines of this peptide of 231.
With B12, the normalised SPOT signal, Boehringer light units (BLU); mean over the file's lines of this peptide is 99.4.
On the same count and under the same terms, the same measure for B13: 558; for B14: 138.

The next experiment has as its target T3, Yfr024 SH3 (LSB3_YEAST), P43603. The experiment is described as follows: SPOT array.
In the case of B1, the normalised SPOT signal, Boehringer light units (BLU); mean over the file's lines of this peptide came to 1540.
The same measure, in the same setting: the figure for B2 is 11800; for B3 it is 938; for B4 it is 475.
Still for that read-out and setting: the same measure for B5: 216; for B6: 30500; for B7: 26.7.
B8 gave a normalised SPOT signal, Boehringer light units (BLU); mean over the file's lines of this peptide of 1530.
Same read-out and setting: the same measure for B9: 2100; for B10: 75.2.
Turning to B11, the normalised SPOT signal, Boehringer light units (BLU); mean over the file's lines of this peptide was found to be 65.5.
On to B12, for which the normalised SPOT signal, Boehringer light units (BLU); mean over the file's lines of this peptide is 733.
Same read-out and setting: the same measure for B13: 226.
The molecule B14 yielded a normalised SPOT signal, Boehringer light units (BLU); mean over the file's lines of this peptide of 402.

For a further experiment, the target named is Sho1 SH3 (SHO1_YEAST), P40073. The experiment in a line: SPOT array.
Sequence of Sho1 SH3 (SHO1_YEAST), P40073 (P40073 295-366): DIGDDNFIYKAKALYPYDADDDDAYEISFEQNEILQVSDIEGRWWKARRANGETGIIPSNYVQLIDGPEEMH
In turn, B1 registered a normalised SPOT signal, Boehringer light units (BLU); mean over the file's lines of this peptide of 112.
Turning to B2, the normalised SPOT signal, Boehringer light units (BLU); mean over the file's lines of this peptide was 189.
Still for that read-out and setting: the figure for B3 is 231; for B4 it is 30.7; for B5 it is 189.
Molecule B6 gave a normalised SPOT signal, Boehringer light units (BLU); mean over the file's lines of this peptide of 57.5.
On the same count and under the same terms, the same measure for B7: 76.6; for B8: 15.3.
In turn, B9 showed a normalised SPOT signal, Boehringer light units (BLU); mean over the file's lines of this peptide of 34.3.
Same read-out and setting: the figure for B10 is 166.
With B11, the normalised SPOT signal, Boehringer light units (BLU); mean over the file's lines of this peptide came out at 27.
The same measure, in the same setting: the same measure for B12: 19.1.
The same measure, in the same setting: the figure for B13 is 102.
Still for that read-out and setting: the figure for B14 is 3820.

In the next experiment the target is T4, Rvs167 SH3 (RV167_YEAST), P39743. The experiment in a line: SPOT array.
In the case of B1, the normalised SPOT signal, Boehringer light units (BLU); mean over the file's lines of this peptide came out at 627.
Molecule B2 registered a normalised SPOT signal, Boehringer light units (BLU); mean over the file's lines of this peptide of 2730.
B3 had a normalised SPOT signal, Boehringer light units (BLU); mean over the file's lines of this peptide of 145.
Regarding B4, the normalised SPOT signal, Boehringer light units (BLU); mean over the file's lines of this peptide was determined as 30.8.
The same measure, in the same setting: the same measure for B5: 50.5.
Same read-out and setting: the figure for B6 is 30400.
In the case of B7, the normalised SPOT signal, Boehringer light units (BLU); mean over the file's lines of this peptide was 35.1.
B8: the normalised SPOT signal, Boehringer light units (BLU); mean over the file's lines of this peptide came to 244.
B9: the normalised SPOT signal, Boehringer light units (BLU); mean over the file's lines of this peptide was 196.
Molecule B10 yielded a normalised SPOT signal, Boehringer light units (BLU); mean over the file's lines of this peptide of 46.5.
Still for that read-out and setting: the figure for B11 is 12.4; for B12 it is 251; for B13 it is 28.6.
Take B14: the normalised SPOT signal, Boehringer light units (BLU); mean over the file's lines of this peptide came to 32.2.

Another experiment addresses T5, Yhr016c SH3 (YSC84_YEAST), P32793. The experiment in a line: SPOT array.
B1 registered a normalised SPOT signal, Boehringer light units (BLU); mean over the file's lines of this peptide of 331.
On the same count and under the same terms, the figure for B2 is 16200.
Still for that read-out and setting: the figure for B3 is 615; for B4 it is 77.5; for B5 it is 23.2.
Same read-out and setting: the same measure for B6: 7260; for B7: 25.3; for B8: 34.4.
For the molecule B9, the normalised SPOT signal, Boehringer light units (BLU); mean over the file's lines of this peptide came to 473.
The same measure, in the same setting: the same measure for B10: 4.3; for B11: 21.1; for B12: 242.
On the same count and under the same terms, the same measure for B13: 26.
The same measure, in the same setting: the figure for B14 is 40.3.

The target in the next experiment is T6, Boi2 SH3 (BOI2_YEAST), P39969. The experiment in a line: SPOT array.
In the case of B1, the normalised SPOT signal, Boehringer light units (BLU); mean over the file's lines of this peptide turned out to be 1870.
Still for that read-out and setting: the same measure for B2: 18.3.
With B3, the normalised SPOT signal, Boehringer light units (BLU); mean over the file's lines of this peptide is 133.
The same measure, in the same setting: the same measure for B4: 31.4; for B5: 12.9; for B6: 64.1.
Same read-out and setting: the same measure for B7: 108; for B8: 54.6.
In turn, B9 yielded a normalised SPOT signal, Boehringer light units (BLU); mean over the file's lines of this peptide of 74.3.
Regarding B10, the normalised SPOT signal, Boehringer light units (BLU); mean over the file's lines of this peptide was determined as 0.
On to B11, for which the normalised SPOT signal, Boehringer light units (BLU); mean over the file's lines of this peptide stood at 104.
Same read-out and setting: the same measure for B12: 50.6.
B13: the normalised SPOT signal, Boehringer light units (BLU); mean over the file's lines of this peptide was determined as 51.2.
In turn, B14 returned a normalised SPOT signal, Boehringer light units (BLU); mean over the file's lines of this peptide of 0.9.
